In patent publication US20240301039A1 (NEW YORK UNIVERSITY IN ABU DHABI, published 2024):

Assays:
[1] = target: T1, SARS-CoV-2 C14S,C23S,C73S NSP9 (triSer-NSP9) (SARS-CoV-2, UniProt P0DTC1 4141-4253); test: ELISA signal on INS over uncoated blocked well
T1 construct: also called NSP (dissolved in ammonium acetate); INS (dissolved in DMSO and diluted in PBS)
T1 chain: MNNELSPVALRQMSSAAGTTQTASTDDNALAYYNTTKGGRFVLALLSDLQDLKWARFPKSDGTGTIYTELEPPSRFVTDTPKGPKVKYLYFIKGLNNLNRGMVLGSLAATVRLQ

[2] = target: T1, SARS-CoV-2 C14S,C23S,C73S NSP9 …; test: ELISA signal on NSP over uncoated blocked well
[3] = target: T2, SARS-CoV-2 C14S,C23S,C73S NSP9 (triSer-Nsp9) (SARS-CoV-2, UniProt P0DTC1 4141-4253); test: ELISA, periplasmic extract; Nsp9 in ammonium acetate (NSP) coated
T2 construct: also called NSP (dissolved in ammonium acetate); INS (dissolved in DMSO/PBS)
T2 chain: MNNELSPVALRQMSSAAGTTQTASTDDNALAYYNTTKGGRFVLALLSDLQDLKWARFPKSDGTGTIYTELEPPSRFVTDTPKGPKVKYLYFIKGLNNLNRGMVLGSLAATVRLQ

[4] = target: T2, SARS-CoV-2 C14S,C23S,C73S NSP9 …; test: ELISA, periplasmic extract; Nsp9 in DMSO/PBS (INS) coated
[5] = target: T2, SARS-CoV-2 C14S,C23S,C73S NSP9 …; test: ELISA signal on INS over uncoated blocked blank
[6] = target: T2, SARS-CoV-2 C14S,C23S,C73S NSP9 …; test: ELISA signal on NSP over uncoated blocked blank

B1: 2INS45 (VHH)
VHH: QVQLQESGGGLVQAGGSLRLSCAASGFTLSSNDMGWYRQAPGKQRELVATITSGLSTNYADSVKGRFTISRDNAKNTVFLQMNSLKIEDTAVYYCEVERGWGPPRDYWGHGTQVTVSS
INS/control [1]: 26.9
NSP/control [2]: 45

B2: 2NSP90 (VHH)
VHH: QVQLQESGGGLVQTGDSLRLSCAVSGRTFSTYSVGWFRQAPGKEREFVALRWSGGTTYYADSVVGRFTVSRDNAKNTVYLEMNSLKPEDTAVYYCAADRGSGSYSPTYRWDYWGQGTQVTVSS
ELISA NSP [3]: 4.78
ELISA INS [4]: 1.98
INS/control [5]: 21
NSP/control [6]: 50.8

B3: 2INS61 (VHH)
VHH: QVQLQESGGGLVQAGGSLRLSCAASGSIFSINTMGWYRQAPGKQRELVAAITSGGSTNYADSVKGRFTISRDNAKNTVHLQMNSLKPEDTAVYYCNVVEGWGPPVGYWGQGTQVTVSS
ELISA NSP [3]: 5.36
ELISA INS [4]: 1.84
INS/control [5]: 2.75
NSP/control [6]: 8.02

B4: 3INS39 (VHH)
VHH: QVQLQESGGGLVQAGGSLRVSCEVSGIMFGINTMGWYRQAPGKQRELVAHITSSGSTNYADSVKGRFTISRDNAKKTVYLQMNSLKPEDTAVYYCNVVAGWGPPPGYWGQGTQVTVSS
ELISA NSP [3]: 4.07
ELISA INS [4]: 2.49
INS/control [5]: 2.7
NSP/control [6]: 4.42

B5: 2INS27 (VHH)
VHH: QVQLQESGGGLVQAGGSLRLSCATSGSIFSSAVMGWYRQAPGNERELVALIGSSDTTDYSNSVKGRFTISRDNAKNTAYLRMNSLKPEDTAVYYCTAVKYGLGGFVYWGQGTQVTVSS
ELISA NSP [3]: 2.77
ELISA INS [4]: 3
INS/control [5]: 31.3
NSP/control [6]: 28.9

B6: 2INS64 (VHH)
VHH: QVQLQESGGGLVQVGGSLRLSCAASGSILSINAMGWYRQAPGKQRELVAAITSGGSTNYADSVKGRFTISRDNAKNMLYLQMNSLKPEDTAVYYCHVVTGWGPLDWGQGTQVTVSS
INS/control [1]: 26.7
NSP/control [2]: 45.2

B7: 3NSP56 (VHH)
VHH: QVQLQESGGGLVQAGGSLRLSCAASGRTFSRYAMGWFRQAPGKERESVAAINWSGTSIFYANSVEGRFTISRDNAKNTVYLQLNSLKPEDTAVYYCAADLVRNYRLGWGDGVYDHYGQGTQVTVSS
INS/control [1]: 2.61
NSP/control [2]: 5.47

B8: 2INS69 (VHH)
VHH: QVQLQESGGGLVRAGDSLRLSCAVSGRTFSSVAMGWFRQAPGKEREFVAFISGSTGSVTYYADSVKGRFAISRDNAKNTVYLQMNSLKPEDTAVYDCAAKFTGTFNYQGLYDYWGQGTQVTVSS
INS/control [1]: 14.1
NSP/control [2]: 13.8

B9: 3NSP78 (VHH)
VHH: QVQLQESGGGLVQAGGSLRLSCAASGRAFSSYVMGWFRQAPGKEREFVAAIHWTGAATVYVDSVKGRFAISRHNAKNTVYLEMNSLKPEDTAVYYCAADPSGSYWPPKRYDYWGQGTQVTVSS
INS/control [1]: 28.6
NSP/control [2]: 47.2

B10: 2NSP23 (VHH)
VHH: QVQLQESGGGLVQPGGSLRLSCAASGLAFSMYTMGWFRQAPGKEREFVAMIISSGDSTDYADSVKGRFTISRDNGKNTVYLQMDSLKPEDTAVYYCAAPKFRYYFSTSPGDFDSWGQGTQVTVSS
ELISA NSP [3]: 4.28
ELISA INS [4]: 1.72
INS/control [5]: 16.8
NSP/control [6]: 41.8

B11: 3NSP52 (VHH)
VHH: QVQLQESGGGLVQPEGSLRLSCAASGLTFDSYAIGWFRQAPGKEREFVAASIWSGDSGHYTGSVKGRFTISRDNAKNTVDLQMNSLKPEDTAVYYCAASASFLHSANYHMRAKWGYWGQGTQVTVSS
ELISA NSP [3]: 2.91
ELISA INS [4]: 2
INS/control [5]: 23.6
NSP/control [6]: 34.2

B12: 3NSP29 (VHH)
VHH: QVQLQESGGGLVQAGGSLRLSCAASGRTFSRYAMGWFRQAPGKERESVAAINWSGTSIFYANSVEGRFTISRDNAKNTVYLQLNSLKPEDTAVYYCGVVLNGMPYWGRGTQVTVSS
INS/control [1]: 1.84
NSP/control [2]: 3.85
